Assays:
Experiment in all cases: holdup assay
Design in all cases: key: below the threshold = too weak to quantify, mostly under pKd 3.1 to 4
Inadl_6, Q8NI35 = target: Inadl_6, Q8NI35
ARHGAP21, Q5T5U3 = target: T1, ARHGAP21, Q5T5U3
T1 sequence (Q5T5U3 45-169, limits assumed, looked up): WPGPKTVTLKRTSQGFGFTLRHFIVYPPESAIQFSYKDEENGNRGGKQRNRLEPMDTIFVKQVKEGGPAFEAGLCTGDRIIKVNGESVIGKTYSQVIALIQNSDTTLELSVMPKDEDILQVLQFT

APBA2_2, Q99767 = target: T2, APBA2_2, Q99767
T2 sequence (Q99767 654-744, limits assumed, looked up): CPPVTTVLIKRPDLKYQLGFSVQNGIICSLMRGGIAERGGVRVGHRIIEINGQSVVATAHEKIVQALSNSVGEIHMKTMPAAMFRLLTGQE

PDZRN4_1, Q6ZMN7 = target: PDZRN4_1, Q6ZMN7
PDZRN4_1, Q6ZMN7, sequence (Q6ZMN7 213-318): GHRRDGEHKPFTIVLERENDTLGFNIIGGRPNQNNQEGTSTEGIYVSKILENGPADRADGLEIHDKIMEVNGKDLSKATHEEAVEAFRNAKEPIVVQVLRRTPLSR

NHERF4_1, Q86UT5-2 = target: NHERF4_1, Q86UT5-2
NHERF4_1, Q86UT5-2, sequence (Q86UT5 other isoform, or with tags, fused parts or gaps): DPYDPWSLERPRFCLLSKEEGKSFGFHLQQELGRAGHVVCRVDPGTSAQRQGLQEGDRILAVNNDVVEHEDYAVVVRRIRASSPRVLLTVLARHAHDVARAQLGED

Inadl_2, Q8NI35 = target: Inadl_2, Q8NI35
Inadl_2, Q8NI35, sequence (Q8NI35 238-335): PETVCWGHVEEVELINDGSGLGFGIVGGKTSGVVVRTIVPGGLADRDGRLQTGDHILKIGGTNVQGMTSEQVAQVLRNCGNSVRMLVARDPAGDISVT

TIAM2, Q8IVF5 = target: T3, TIAM2, Q8IVF5
T3 sequence (Q8IVF5 885-986, limits assumed, looked up): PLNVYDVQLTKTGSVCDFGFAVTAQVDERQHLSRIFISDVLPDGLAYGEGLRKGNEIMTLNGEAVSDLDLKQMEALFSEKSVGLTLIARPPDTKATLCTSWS

DFNB31_3, Q9P202 = target: T4, DFNB31_3, Q9P202
T4 sequence (Q9P202 811-907, limits assumed, looked up): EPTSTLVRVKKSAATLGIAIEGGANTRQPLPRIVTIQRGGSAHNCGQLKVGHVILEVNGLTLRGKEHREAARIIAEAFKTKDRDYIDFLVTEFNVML

MAGI2_2, Q86UL8 = target: MAGI2_2, Q86UL8
MAGI2_2, Q86UL8, sequence (Q86UL8 410-522): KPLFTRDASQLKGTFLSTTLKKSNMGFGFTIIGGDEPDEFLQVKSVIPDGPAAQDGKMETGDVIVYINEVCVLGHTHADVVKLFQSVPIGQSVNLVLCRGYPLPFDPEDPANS

LIN7B, Q9HAP6 = target: T5, LIN7B, Q9HAP6
T5 sequence (Q9HAP6 88-185, limits assumed, looked up): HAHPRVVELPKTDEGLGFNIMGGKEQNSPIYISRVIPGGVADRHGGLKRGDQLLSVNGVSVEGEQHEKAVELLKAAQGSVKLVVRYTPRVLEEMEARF

RHPN1, Q8TCX5 = target: T6, RHPN1, Q8TCX5
T6 sequence (Q8TCX5 508-602, limits assumed, looked up): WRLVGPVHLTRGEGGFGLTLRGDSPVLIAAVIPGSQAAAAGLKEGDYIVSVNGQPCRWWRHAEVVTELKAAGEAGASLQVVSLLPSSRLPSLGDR

MPP2, Q14168 = target: T7, MPP2, Q14168
T7 sequence (Q14168 180-250, limits assumed, looked up): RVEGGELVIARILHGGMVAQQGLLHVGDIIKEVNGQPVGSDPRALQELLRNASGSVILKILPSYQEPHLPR

PDLIM1, O00151 = target: PDLIM1, O00151
PDLIM1, O00151, sequence (O00151 1-87): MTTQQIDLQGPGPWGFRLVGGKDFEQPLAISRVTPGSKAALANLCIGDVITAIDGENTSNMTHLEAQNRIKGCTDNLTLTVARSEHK

DLG5_1, Q8TDM6 = target: DLG5_1, Q8TDM6
DLG5_1, Q8TDM6, sequence (Q8TDM6 617-713): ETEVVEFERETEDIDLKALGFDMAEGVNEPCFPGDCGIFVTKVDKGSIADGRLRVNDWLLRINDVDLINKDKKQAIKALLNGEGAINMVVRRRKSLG

NHERF3_1, Q5T2W1 = target: T8, NHERF3_1, Q5T2W1
T8 sequence (Q5T2W1 4-100, limits assumed, looked up): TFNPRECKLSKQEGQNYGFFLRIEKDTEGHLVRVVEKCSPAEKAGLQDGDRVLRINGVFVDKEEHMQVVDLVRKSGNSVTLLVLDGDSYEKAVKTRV

LDB3, O75112 = target: LDB3, O75112
LDB3, O75112, sequence (O75112 1-94): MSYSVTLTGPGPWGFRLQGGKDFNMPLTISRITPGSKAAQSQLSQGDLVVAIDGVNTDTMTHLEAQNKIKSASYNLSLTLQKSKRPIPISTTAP

GIPC2, Q8TF65 = target: GIPC2, Q8TF65
GIPC2, Q8TF65, sequence (Q8TF65 112-203): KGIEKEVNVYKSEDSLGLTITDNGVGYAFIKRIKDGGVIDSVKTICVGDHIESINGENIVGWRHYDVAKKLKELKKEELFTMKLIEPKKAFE

ARHGEF12, Q9NZN5-2 = target: ARHGEF12, Q9NZN5-2
ARHGEF12, Q9NZN5-2, sequence (Q9NZN5 other isoform, or with tags, fused parts or gaps): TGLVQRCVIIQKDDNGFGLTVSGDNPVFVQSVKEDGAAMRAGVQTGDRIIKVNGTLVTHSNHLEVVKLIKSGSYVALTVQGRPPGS

Inadl_8, Q8NI35 = target: Inadl_8, Q8NI35
Inadl_8, Q8NI35, sequence (Q8NI35 1425-1530): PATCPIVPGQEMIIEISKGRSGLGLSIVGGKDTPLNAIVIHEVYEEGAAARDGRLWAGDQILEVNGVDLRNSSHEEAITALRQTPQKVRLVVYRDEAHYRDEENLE

GRID2IP_1, A4D2P6 = target: GRID2IP_1, A4D2P6
GRID2IP_1, A4D2P6, sequence (A4D2P6 1-87): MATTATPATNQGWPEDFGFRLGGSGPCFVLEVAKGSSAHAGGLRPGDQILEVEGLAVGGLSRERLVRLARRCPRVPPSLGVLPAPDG

GRASP, Q7Z6J2 = target: GRASP, Q7Z6J2
GRASP, Q7Z6J2, sequence (Q7Z6J2 96-193): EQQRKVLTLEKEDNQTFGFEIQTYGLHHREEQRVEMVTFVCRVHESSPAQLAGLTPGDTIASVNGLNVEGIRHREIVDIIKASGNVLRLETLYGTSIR

DLG1_2, Q12959 = target: DLG1_2, Q12959
RADIL, Q96JH8 = target: T9, RADIL, Q96JH8
T9 sequence (Q96JH8 971-1071, limits assumed, looked up): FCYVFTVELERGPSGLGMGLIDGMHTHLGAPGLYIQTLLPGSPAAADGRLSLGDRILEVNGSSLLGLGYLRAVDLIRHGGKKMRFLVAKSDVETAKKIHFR

NHERF3_3, Q5T2W1 = target: T10, NHERF3_3, Q5T2W1
T10 sequence (Q5T2W1 238-333, limits assumed, looked up): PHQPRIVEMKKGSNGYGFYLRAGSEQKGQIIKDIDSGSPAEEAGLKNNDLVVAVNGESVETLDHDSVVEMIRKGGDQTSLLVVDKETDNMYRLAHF

Inadl_10, Q8NI35 = target: Inadl_10, Q8NI35
Inadl_10, Q8NI35, sequence (Q8NI35 1673-1763): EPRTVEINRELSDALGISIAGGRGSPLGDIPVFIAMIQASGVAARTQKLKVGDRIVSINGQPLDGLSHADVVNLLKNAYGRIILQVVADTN

DLG1_1, Q12959 = target: DLG1_1, Q12959
DLG2_2, Q15700 = target: DLG2_2, Q15700
DLG2_2, Q15700, sequence (Q15700 189-283): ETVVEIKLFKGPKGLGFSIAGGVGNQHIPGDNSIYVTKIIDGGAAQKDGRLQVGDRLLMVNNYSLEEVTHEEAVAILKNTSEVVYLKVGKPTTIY

[1] = plain residues with an end cap or a label only (N-terminal biotin on a linker: ttds)
[2] = plain residues with an end cap or a label only (N-terminal biotin on a linker: ahx)
[3] = plain residues with an end cap or a label only (N-terminal biotin on a linker: ado-ado)

Inadl_6, Q8NI35, sequence (Q8NI35 1058-1167): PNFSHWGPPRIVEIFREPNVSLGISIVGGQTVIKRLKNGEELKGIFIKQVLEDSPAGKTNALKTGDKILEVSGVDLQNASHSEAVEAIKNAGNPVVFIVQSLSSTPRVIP

Binder: RTRQRNETQV [HPV51-E6, P26554]
- pKd (Inadl_6, Q8NI35; [1]): below the threshold
- pKd (ARHGAP21, Q5T5U3; [1]): below the threshold
- pKd (APBA2_2, Q99767; [1]): below the threshold
- pKd (PDZRN4_1, Q6ZMN7; [1]): 4.16
- pKd (NHERF4_1, Q86UT5-2; [1]): below the threshold
- pKd (Inadl_2, Q8NI35; [1]): below the threshold
- pKd (TIAM2, Q8IVF5; [1]): below the threshold
- pKd (DFNB31_3, Q9P202; [1]): below the threshold
- pKd (MAGI2_2, Q86UL8; [1]): 6.66
- pKd (LIN7B, Q9HAP6; [1]): below the threshold
- pKd (RHPN1, Q8TCX5; [1]): 3.7
- pKd (MPP2, Q14168; [1]): below the threshold
- pKd (PDLIM1, O00151; [1]): below the threshold
- pKd (DLG5_1, Q8TDM6; [1]): below the threshold
- pKd (NHERF3_1, Q5T2W1; [1]): 4.17
- pKd (LDB3, O75112; [1]): below the threshold
- pKd (GIPC2, Q8TF65; [1]): 3.63
- pKd (ARHGEF12, Q9NZN5-2; [1]): 3.73
- pKd (Inadl_8, Q8NI35; [1]): below the threshold
- pKd (GRID2IP_1, A4D2P6; [1]): below the threshold
- pKd (GRASP, Q7Z6J2; [1]): below the threshold
- pKd (DLG1_2, Q12959; [1]): 5.13
- pKd (RADIL, Q96JH8; [1]): 3.82
- pKd (NHERF3_3, Q5T2W1; [1]): below the threshold
- pKd (Inadl_10, Q8NI35; [1]): below the threshold
- pKd (DLG1_1, Q12959; [1]): 4.78
- pKd (DLG2_2, Q15700; [1]): 4.97

Binder: QGRWDHETIV [TMEM215, Q68D42]
- pKd (Inadl_6, Q8NI35; [2]): 3.98
- pKd (ARHGAP21, Q5T5U3; [2]): below the threshold
- pKd (APBA2_2, Q99767; [2]): below the threshold
- pKd (PDZRN4_1, Q6ZMN7; [2]): 3.67
- pKd (NHERF4_1, Q86UT5-2; [2]): below the threshold
- pKd (Inadl_2, Q8NI35; [2]): 4.22
- pKd (TIAM2, Q8IVF5; [2]): below the threshold
- pKd (DFNB31_3, Q9P202; [2]): below the threshold
- pKd (MAGI2_2, Q86UL8; [2]): 4.08
- pKd (LIN7B, Q9HAP6; [2]): below the threshold
- pKd (RHPN1, Q8TCX5; [2]): 4.59
- pKd (MPP2, Q14168; [2]): below the threshold
- pKd (PDLIM1, O00151; [2]): below the threshold
- pKd (DLG5_1, Q8TDM6; [2]): below the threshold
- pKd (NHERF3_1, Q5T2W1; [2]): 4.07
- pKd (LDB3, O75112; [2]): 3.47
- pKd (GIPC2, Q8TF65; [2]): 3.81
- pKd (ARHGEF12, Q9NZN5-2; [2]): 3.71
- pKd (Inadl_8, Q8NI35; [2]): 3.65
- pKd (GRID2IP_1, A4D2P6; [2]): below the threshold
- pKd (GRASP, Q7Z6J2; [2]): below the threshold
- pKd (DLG1_2, Q12959; [2]): 4.81
- pKd (RADIL, Q96JH8; [2]): 4.83
- pKd (NHERF3_3, Q5T2W1; [2]): below the threshold
- pKd (Inadl_10, Q8NI35; [2]): 3.64
- pKd (DLG1_1, Q12959; [2]): 4.84
- pKd (DLG2_2, Q15700; [2]): 4.07

Binder: TETASVCTKV [SLC23A1, Q9UHI7]
- pKd (Inadl_6, Q8NI35; [3]): below the threshold
- pKd (ARHGAP21, Q5T5U3; [3]): 3.94
- pKd (APBA2_2, Q99767; [3]): below the threshold
- pKd (PDZRN4_1, Q6ZMN7; [3]): below the threshold
- pKd (NHERF4_1, Q86UT5-2; [3]): 4.53
- pKd (Inadl_2, Q8NI35; [3]): below the threshold
- pKd (TIAM2, Q8IVF5; [3]): below the threshold
- pKd (DFNB31_3, Q9P202; [3]): below the threshold
- pKd (MAGI2_2, Q86UL8; [3]): 3.48
- pKd (LIN7B, Q9HAP6; [3]): below the threshold
- pKd (RHPN1, Q8TCX5; [3]): 4.38
- pKd (MPP2, Q14168; [3]): below the threshold
- pKd (PDLIM1, O00151; [3]): below the threshold
- pKd (DLG5_1, Q8TDM6; [3]): below the threshold
- pKd (NHERF3_1, Q5T2W1; [3]): 4.54
- pKd (LDB3, O75112; [3]): below the threshold
- pKd (GIPC2, Q8TF65; [3]): 3.6
- pKd (ARHGEF12, Q9NZN5-2; [3]): 3.88
- pKd (Inadl_8, Q8NI35; [3]): 4.01
- pKd (GRID2IP_1, A4D2P6; [3]): 3.97
- pKd (GRASP, Q7Z6J2; [3]): 4.43
- pKd (DLG1_2, Q12959; [3]): 4.4
- pKd (RADIL, Q96JH8; [3]): 3.96
- pKd (NHERF3_3, Q5T2W1; [3]): 3.7
- pKd (Inadl_10, Q8NI35; [3]): 3.78
- pKd (DLG1_1, Q12959; [3]): 3.84
- pKd (DLG2_2, Q15700; [3]): 3.99

Binder: DPRNTQTSQI [ABRAXAS2, Q15018]
- pKd (Inadl_6, Q8NI35; [1]): below the threshold
- pKd (ARHGAP21, Q5T5U3; [1]): below the threshold
- pKd (APBA2_2, Q99767; [1]): below the threshold
- pKd (PDZRN4_1, Q6ZMN7; [1]): 3.56
- pKd (NHERF4_1, Q86UT5-2; [1]): below the threshold
- pKd (Inadl_2, Q8NI35; [1]): below the threshold
- pKd (TIAM2, Q8IVF5; [1]): below the threshold
- pKd (DFNB31_3, Q9P202; [1]): 3.67
- pKd (MAGI2_2, Q86UL8; [1]): 3.59
- pKd (LIN7B, Q9HAP6; [1]): below the threshold
- pKd (RHPN1, Q8TCX5; [1]): 4.43
- pKd (MPP2, Q14168; [1]): below the threshold
- pKd (PDLIM1, O00151; [1]): below the threshold
- pKd (DLG5_1, Q8TDM6; [1]): below the threshold
- pKd (NHERF3_1, Q5T2W1; [1]): 3.91
- pKd (LDB3, O75112; [1]): below the threshold
- pKd (GIPC2, Q8TF65; [1]): 3.54
- pKd (ARHGEF12, Q9NZN5-2; [1]): 4.44
- pKd (Inadl_8, Q8NI35; [1]): 3.54
- pKd (GRID2IP_1, A4D2P6; [1]): below the threshold
- pKd (GRASP, Q7Z6J2; [1]): 3.95
- pKd (DLG1_2, Q12959; [1]): 3.84
- pKd (RADIL, Q96JH8; [1]): below the threshold
- pKd (NHERF3_3, Q5T2W1; [1]): below the threshold
- pKd (Inadl_10, Q8NI35; [1]): 3.52
- pKd (DLG1_1, Q12959; [1]): 3.49
- pKd (DLG2_2, Q15700; [1]): below the threshold
